Measured values from patent US5652340.

Target: T1, SATB1 80 kDa deltaSATB1 (bacterially produced) (Homo sapiens) (UniProt Q01826)
T1 sequence: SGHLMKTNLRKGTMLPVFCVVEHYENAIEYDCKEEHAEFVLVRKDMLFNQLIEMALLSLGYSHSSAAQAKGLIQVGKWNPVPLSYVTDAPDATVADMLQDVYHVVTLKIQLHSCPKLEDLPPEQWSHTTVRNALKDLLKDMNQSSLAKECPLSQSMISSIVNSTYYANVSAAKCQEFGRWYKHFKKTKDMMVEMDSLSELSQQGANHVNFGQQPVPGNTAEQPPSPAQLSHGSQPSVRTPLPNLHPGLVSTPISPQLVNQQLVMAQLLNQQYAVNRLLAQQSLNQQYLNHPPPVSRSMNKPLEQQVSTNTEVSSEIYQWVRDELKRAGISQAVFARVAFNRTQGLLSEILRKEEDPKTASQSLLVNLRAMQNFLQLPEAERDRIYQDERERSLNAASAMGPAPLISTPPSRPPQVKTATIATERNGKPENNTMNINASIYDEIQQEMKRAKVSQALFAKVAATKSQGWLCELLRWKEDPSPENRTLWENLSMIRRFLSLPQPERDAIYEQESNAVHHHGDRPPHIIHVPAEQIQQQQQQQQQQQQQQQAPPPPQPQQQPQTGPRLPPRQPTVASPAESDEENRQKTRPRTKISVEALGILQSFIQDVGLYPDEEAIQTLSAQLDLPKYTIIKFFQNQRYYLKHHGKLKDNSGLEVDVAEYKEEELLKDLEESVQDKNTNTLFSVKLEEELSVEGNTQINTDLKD
Experiment: EMSA

TCTTTAATTTCTAATATATTTAGAATTC (double strand) [wild-type (25)2]
koff: 0.0167 s⁻¹
